Measurements reported in the nanobody polyreactivity screen of Harvey et al. (2022).

Test: yeast display, Sf9 membrane polyspecificity reagent, FACS + sequencing; frameworks hold sequencing errors
How it was run: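 A synthetic nanobody library was expressed on Saccharomyces cerevisiae BJ5465 by galactose induction for 36–48 hours. The library was stained for 1 hour at 4 °C with 10% biotinylated, detergent-solubilized Sf9 membrane reagent and enriched with streptavidin microbeads before FACS. Low and high (top ~1%) gates were set on anti-HA fluorescence for expression and streptavidin fluorescence for reagent binding, and each polyreactivity label reflects the gate of origin.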

Sequence | polyreactivity (PSR sort gate)
QVQLVESGGGLVQAGGSLRLSCAASGFTFDYYTMGWYRQAPGKERELVAAITSSAGSTDYADSVKGRFTISRDYAKNTVYLQMNSLKPEDTAVYYCNADFLYGTYDYWGQGTQVTVSS | low polyreactivity
QVQLVESGGGLVQAGGSLRLSCAASGFTFEDNTMGWYRQAPGKERELVAAITWGGVSTYYADSVKGRFTISRDNAKNTVYLQMNSLKPEDTAVYYCARDYDVYTVYLMDYWGQGTQVTVSS | low polyreactivity
QVQLVESGGGLVQAGGSLRLSCAASGFTFEENDMGWYRQAPGKETELVAAINWSGGNTYYADSVKGRFTISRDNAKNTVYLQMNSLKPEDTAVYYCAADSPRYYYWVGPYYGYDYWGQGTQVTVSS | high polyreactivity
QVQLVESGGGLVQAGGSLRLSCAASGFTFEFNVMGWYRQAPGKERELVASIRWGSTSYADSVKGRFTISRDNAKNTVYLQMNSLKPEDTALYDCAAVTYDYWRQGTQVTVSS | low polyreactivity
QVQLVESGGGLVQAGGSLRLSCAASGFTFEIYAMGWYRQAPGKEREFVASISWSVGSTYYADSVKGRFTISRDNAKNTVYLQMNSLKPEDTAVYYCNADWRHKYYHSYLYDYWGQGTQVTVSS | low polyreactivity
QVQLVESGGGLVQAGGSLRLSCAASGFTFERNAMGWYRQAPGKERELVATINGSSDSTYYSDSVKGRFTISRDNAKNTVYLQMNSLKPEDTAVYYCNADSITEGNSRYSHFDYWGQGTQVTVSS | low polyreactivity
QVQLVESGGGLVQAGGSLRLSCAASGFTFETYAMGWNRQAPGKERELVASISRSGGRTYYADSVKGRFTISRDNAKNTVYLQMNSLKPDDTAVYYCAAGYYVRYGRRPTGYGGYDYWGQGTQVTVSS | high polyreactivity
QVQLVESGGGLVQAGGSLRLSCAASGFTFEVNAMGWYRQAPGKERELVAAINRGGSTYYADSVKGRFTISRDNAKNTVYFQMNSLKPEDTAVYYCNRDYEYPTYPHDYWGQGTQVTVSS | low polyreactivity
QVQLVESGGGLVQAGGSLRLSCAASGFTFEWYTMRCYRQAPGKERELVADISGDGSTYYADSVKGRFTISRDNAKNTVYLQMNSLKPEDTAVYYCAARTRRYHRPGLSPGNYWGQGTQVTVSS | high polyreactivity
QVQLVESGGGLVQAGGSLRLSCAASGFTFEYYAMGWYRHAPGKERELVAAITSGGTTYYADSVKGRFTISRDNAKNTDYLQMNSLKPEDTAVYYCAAANRFGPYGYWGQGTQVTVSS | high polyreactivity
QVQLVESGGGLVQAGGSLRLSCAASGFTFEYYAMGWYRQAPGKERELVATITSGGSTYYADSVKGRFTISRDNAKNTVYLQMNSLKPDDTAVYYCITSSPWIEDYWGQGTQVTVSS | low polyreactivity
QVQLVESGGGLVQAGGSLRLSCAASGFTFEYYAMGWYRQARGKERELVASITNSGTRTYYADSVKGRFTISRDNAKNTVYLQMNSLKPEDTAVYYCAATPWNGRYSRFGYWGQGTQVTVSS | high polyreactivity
QVQLVESGGGLVQAGGSLRLSCAASGFTFEYYTMGWYRQAPGTERELVAAITKRGGSTYYADSVKGRFTISRDNAKNTVYLQMNSLKPEDTAVYYCAVRKPYSRYTVNYDSWGQGTQVTVSS | high polyreactivity
QVQLVESGGGLVQAGGSLRLSCAASGFTFFANAMGWYRQAPGKERELVAAISISDATTYYADSVKGRFTISRDNAKNTVYLQMNSLKPEDTAVYDCAAEPEYIAGPLDYWGQGTQVTVSS | high polyreactivity
QVQLVESGGGLVQAGGSLRLSCAASGFTFFHNAMGWYRPAPGKERELVAAITSGGNTYYADSVKGRFTISRDNAKNTVYLQMNSLKPEDTAVYYCAASFWSSGQWYDYWGQGTQVTVSS | high polyreactivity
QVQLVESGGGLVQAGGSLRLSCAASGFTFFHYAMGWYRQATGKEREFVAAINTRGSRTYYADSVKGRFTISRDNAKNTVYLQMNSLKPEDTAVYYCAADSVQVYAWQYYYWGQGTQVTVSS | high polyreactivity

Sequence | polyreactivity (PSR sort gate)
QVQLVESGGGLVQAGGSLRLSCAASGFTFFKYAMGWYRQAPGKERVLVAAITRNGGRTYYADSVKGRFTISRDNAKNTVYLQMNSLKPEDTAVYYCNAASVNGGRDFDYWGQGTQVTVSS | high polyreactivity
QVQLVESGGGLVQAGGSLRLSCAASGFTFFPYAMGWYRQAPGKERELVAGITYIGGSTYYADSVKGRFTISRDNAKNTVYLQMNSLKPEDTAVYYCNAGRIGGFDWGQGTQVTVSS | low polyreactivity
QVQLVESGGGLVQAGGSLRLSCAASGFTFFPYAMGWYRQAPGTERELVAAITETGGRTYYADSVKGRFTISRDNAKYTVYLQMNSLKPEDTAVYYCAKRGLHGYFVRGERGYWGQGTQVTVSS | low polyreactivity
QVQLVESGGGLVQAGGSLRLSCAASGFTFFRNAMGWYRQAPGKERELVAAISGSGGSTYYADSVKGRFTISRDNATNTVYLQMNSLIPVDTAVYYCATYSYPAKVREAYNYWGQGTQVTVSS | low polyreactivity
QVQLVESGGGLVQAGGSLRLSCAASGFTFFSKAMGWYRQAPGKERELVAAITTNGGSTYYADSVKGRFTISRDNAKNTVYLQMNSLKPEETAVYYCAADYSLPWSWLYEYWGQGTQVTVSS | low polyreactivity
QVQLVESGGGLVQAGGSLRLSCAASGFTFFSNAMGWNRQAPGKERELVAAIDWSGDNTNYADSVKGRFTISRDNAKNTVYLQLNSLKPEDTAVYYCAAVYSYYRLYAYPAYYYWGQGTQVTVSS | low polyreactivity
QVQLVESGGGLVQAGGSLRLSCAASGFTFFSYAMGWYRQAPGKERELVAAISWSGGTTYYADSVKGRFTISRDNAKNTDYLQMNSLKPEDTAVYYCAAGPFSYSHYGRKFYYWGQGTQVTVSS | high polyreactivity
QVQLVESGGGLVQAGGSLRLSCAASGFTFFTYAMGWYRQAPGKERELVAAIRWRGSTTYYADSVKGRFTISRDNAKYTVYLQMNSLKPEDTAVYYCAAELRFRQTGLAYWGDYWGQGTQVTVSS | high polyreactivity
QVQLVESGGGLVQAGGSLRLSCAASGFTFFWYAMGWSRQAPGKERELVAGITYRGGSTYYADSVKGRFTISRDNAKNTVYLQMNSLKPEDTAVYYCNADVVTKHISAWWDRYYRRYYYWGQGTQVTVSS | low polyreactivity
QVQLVESGGGLVQAGGSLRLSCAASGFTFFYNDMGSYRQAPGKERELVAAINLSGGTTYYADSVKGRFTISRDNAKNTVYLQMNSLIPEDTAVYYCNRASSTPWYRWRYKPFDYWGQGTQVTVSS | high polyreactivity
QVQLVESGGGLVQAGGSLRLSCAASGFTFFYYVMGWYRQAPGKERDLVAAITRGGSTYYADSVKGRFTISRDNAKNTVDLQMNSLKPEDTAVYYCNKVLRVYLGRFEYYSWGQGTQVTVSS | high polyreactivity
QVQLVESGGGLVQAGGSLRLSCAASGFTFGAYAMGWYRQAPGTERELVAAISYRGGRTYYADSVKGRFTISRDNAKNTVYLQMNSLKPEDTAVYYGNTVYLVTWRVKGYYWGQGTQVTVSS | low polyreactivity
QVQLVESGGGLVQAGGSLRLSCAASGFTFGGNAMGWYRQAPGKEREFVAAITRSGGSTYYADSVKGRFTISRDNAKNTVYLQMNSLKPEDTAVYYCAARRSYPLGYDYWGQGTQVTVSS | high polyreactivity
QVQLVESGGGLVQAGGSLRLSCAASGFTFGGNVMGWYRQAPGTERELVAAITYSGGSTYYADSVKGRFTISRDNAKNTVYLQMNSLIPEDTAVYYCNADATDSYPEKDEHDSWGQGTQVNVSS | low polyreactivity
QVQLVESGGGLVQAGGSLRLSCAASGFTFGGYAMGWYRQAPGKERELVAAISRSGGSTSYADSVKGRFTISRDNAKNTVYLQMNSLKPEDTAVYYCAAKFFRNTYSYGMDYWGLGTQVTVSS | high polyreactivity
